Measurements taken from article PMC12089419, “Synergistic regulation of DACH1 stability by acetylation and deubiquitination promotes colorectal cancer progression” (Cell Death & Disease, 2025).

Biological target: T1, GST-USP7 (UniProt Q93009 1-1102)
T1 construct: USP7, cloned in pGEX-4T-1; also called GST-tagged USP7; source: plasmid in pGEX-4T-1
Assay: pull-down; purified DACH1 incubated with GST or GST-USP7 conjugated with GSH-Sepharose, followed by Coomassie blue staining
Details: both partners purified

T1 sequence (Q93009 whole entry): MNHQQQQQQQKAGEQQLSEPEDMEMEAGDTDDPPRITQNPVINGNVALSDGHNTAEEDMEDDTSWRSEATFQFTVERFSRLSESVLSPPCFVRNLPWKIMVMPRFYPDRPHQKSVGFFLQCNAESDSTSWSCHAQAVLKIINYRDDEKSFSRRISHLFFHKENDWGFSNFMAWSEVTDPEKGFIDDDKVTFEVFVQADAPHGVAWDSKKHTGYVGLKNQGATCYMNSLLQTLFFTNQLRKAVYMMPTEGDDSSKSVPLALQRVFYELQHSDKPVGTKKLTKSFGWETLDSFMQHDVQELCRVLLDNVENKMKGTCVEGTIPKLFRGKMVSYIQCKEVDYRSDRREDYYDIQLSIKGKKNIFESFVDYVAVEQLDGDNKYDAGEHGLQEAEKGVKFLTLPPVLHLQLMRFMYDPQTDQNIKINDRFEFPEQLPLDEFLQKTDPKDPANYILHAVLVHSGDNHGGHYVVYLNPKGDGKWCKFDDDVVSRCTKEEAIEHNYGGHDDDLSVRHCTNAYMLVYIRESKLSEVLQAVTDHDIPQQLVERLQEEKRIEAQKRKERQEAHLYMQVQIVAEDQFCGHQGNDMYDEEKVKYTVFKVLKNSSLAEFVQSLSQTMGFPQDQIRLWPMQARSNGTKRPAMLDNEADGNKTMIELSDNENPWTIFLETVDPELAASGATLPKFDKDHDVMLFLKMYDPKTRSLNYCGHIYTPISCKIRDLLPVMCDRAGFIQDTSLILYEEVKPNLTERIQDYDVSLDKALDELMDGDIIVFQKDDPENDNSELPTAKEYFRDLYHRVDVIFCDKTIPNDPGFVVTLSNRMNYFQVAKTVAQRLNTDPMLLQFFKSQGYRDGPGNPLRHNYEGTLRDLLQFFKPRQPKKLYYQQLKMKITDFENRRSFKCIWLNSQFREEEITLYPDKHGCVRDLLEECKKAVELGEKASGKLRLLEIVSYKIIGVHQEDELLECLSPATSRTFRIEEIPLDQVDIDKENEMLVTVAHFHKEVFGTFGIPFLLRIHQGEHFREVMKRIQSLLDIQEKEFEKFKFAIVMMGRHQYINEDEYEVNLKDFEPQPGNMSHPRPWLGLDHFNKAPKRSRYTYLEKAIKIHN

B1: Myc-DACH1-FL (natural protein, human, UniProt Q9UI36 1-758, looked up)
chain: MAVPAALIPPTQLVPPQPPISTSASSSGTTTSTSSATSSPAPSIGPPASSGPTLFRPEPIASAAAAAATVTSTGGGGGGGGSGGGGGSSGNGGGGGGGGGGSNCNPNLAAASNGSGGGGGGISAGGGVASSTPINASTGSSSSSSSSSSSSSSSSSSSSSSSSCGPLPGKPVYSTPSPVENTPQNNECKMVDLRGAKVASFTVEGCELICLPQAFDLFLKHLVGGLHTVYTKLKRLEITPVVCNVEQVRILRGLGAIQPGVNRCKLISRKDFETLYNDCTNASSRPGRPPKRTQSVTSPENSHIMPHSVPGLMSPGIIPPTGLTAAAAAAAAATNAAIAEAMKVKKIKLEAMSNYHASNNQHGADSENGDMNSSVGSSDGSWDKETLPSSPSQGPQASITHPRMPGARSLPLSHPLNHLQQSHLLPNGLELPFMMMPHPLIPVSLPPASVTMAMSQMNHLSTIANMAAAAQVQSPPSRVETSVIKERVPDSPSPAPSLEEGRRPGSHPSSHRSSSVSSSPARTESSSDRIPVHQNGLSMNQMLMGLSPNVLPGPKEGDLAGHDMGHESKRMHIEKDETPLSTPTARDSLDKLSLTGHGQPLPPGFPSPFLFPDGLSSIETLLTNIQGLLKVAIDNARAQEKQVQLEKTELKMDFLRERELRETLEKQLAMEQKNRAIVQKRLKKEKKAKRKLQEALEFETKRREQAEQTLKQAASTDSLRVLNDSLTPEIEADRSGGRTDAERTIQDGRLYLKTTVMY
notes: DACH1, human, full length (FL), cloned in pcDNA3.1 or a lentiviral plasmid; the text calls it Myc-tagged DACH1; also called Myc-tagged DACH1; Myc-tagged FL DACH1; source: HEK293T or SW480, transfected, in lysate; HCT8, stably expressed, whole cell extracts
Question: Does B1 bind?
Answer: Result: binds
